Experiment [1] addresses murine BACE1 ECD (amino acids 1-457) (murine) (UniProt P56818). The experiment is described as follows: SPR (BIAcore-3000), second unlabelled row under Mouse, IgG captured by anti-human Fc antibody, pH 7.0. For orientation: Surface plasmon resonance follows binding to a sensor surface in real time, without labels.
Experiment [2] shares this target. As to the kind of experiment: SPR (BIAcore-3000), IgG captured by anti-human Fc antibody, BACE1 ECD injected, 25 C, pH 7.0.

murine BACE1 ECD (amino acids 1-457) (murine), sequence (P56818 22-457 limits assumed, form in doubt): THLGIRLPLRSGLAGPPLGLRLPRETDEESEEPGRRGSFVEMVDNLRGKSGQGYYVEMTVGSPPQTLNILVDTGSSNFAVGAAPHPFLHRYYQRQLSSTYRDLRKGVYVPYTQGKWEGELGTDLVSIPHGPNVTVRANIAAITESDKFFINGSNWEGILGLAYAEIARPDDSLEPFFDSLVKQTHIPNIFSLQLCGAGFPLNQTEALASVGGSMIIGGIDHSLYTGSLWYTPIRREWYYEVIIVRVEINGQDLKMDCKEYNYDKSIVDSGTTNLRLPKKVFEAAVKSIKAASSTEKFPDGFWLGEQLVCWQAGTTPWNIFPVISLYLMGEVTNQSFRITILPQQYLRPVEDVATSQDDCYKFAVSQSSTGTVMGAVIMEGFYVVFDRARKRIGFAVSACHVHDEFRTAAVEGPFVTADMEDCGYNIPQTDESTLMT

B1: YW412.8.31 anti-BACE1 human IgG (antibody, V domains shown)
VH: EVQLVESGGGLVQPGGSLRLSCAASGFTFLGYGIHWVRQAPGKGLEWVGWISPAGGSTDYADSVKGRFTISADTSKNTAYLQMNSLRAEDTAVYYCARGPFSPWVMDYWGQGTLVTVSS
VL: DIQMTQSPSSLSASVGDRVTITCRASQDVSTAVAWYQQKPGKAPKLLIYSASFLYSGVPSRFSGSGSGTDFTLTISSLQPEDFATYYCQQFPTYLPTFGQGTKVEIK
B1: in experiment [1], the Kd (as a rule, the constant that tells how readily two partners part at equilibrium) came out at 1.4 nM; the koff (in general, a measure of how fast the partners let go of each other) was 0.000141 s⁻¹; the kon (usually the rate constant with which the complex forms) came to 101000 M⁻¹ s⁻¹. In experiment [2], this molecule yielded a Kd of 2.1 nM, a koff of 0.00029 s⁻¹ and a kon of 140000 M⁻¹ s⁻¹.

These data come from patent publication US20140286963A1.
